The labels stand for the following.
B1: Sar mutated probe (dsDNA)
DNA 1: GTTCCATCTACTTCACC
DNA 2: GGTGAAGTAGATGGAAC
B2: hrpG motif (dsDNA)
DNA 1: TTTTGTCCTGGCGTCGGGCGCCAGGCGTCGGCGTC
DNA 2: GACGCCGACGCCTGGCGCCCGACGCCAGGACAAAA
B3: hrpX motif (dsDNA)
DNA 1: GCTGCATACAATCGTGTGCGCCAGCGAGCTCGGCG
DNA 2: CGCCGAGCTCGCTGGCGCACACGATTGTATGCAGC
B4: Sar probe (dsDNA)
DNA 1: GGCGTCGAGCGCCAGGC
DNA 2: GCCTGGCGCTCGACGCC

This data set deals with Sar (PXO_RS20790) (Xanthomonas oryzae pv. oryzae PXO99A, UniProt A0A0K0GPT9 1-242). The data set can be described thus: EMSA. A general note: In EMSA bound probe runs differently from free probe, usually more slowly.
In the case of B1, the binding result was “no binding”.
Next, B2: “binds”.
The entry for B3 is “binds”.
Next, B4: “binds”.
